US20190135918A1 (ICHNOS SCIENCES, published 2019)

Columns and labels:
[1] = biological target: T1, F19 (peptide-Fc fusion derived from the extracellular domain of human CD38) (human, UniProt P0DOX5 223-449 = IgG part); test: SPR, humanized 9G7 immobilized on the chip, peptide-Fc fusion injected
T1 construct: As F1; by count CD38 residues 277-289

[2] = biological target: T2, F16 (peptide-Fc fusion derived from the extracellular domain of human CD38) (human, UniProt P0DOX5 223-449 = IgG part); test: as above
T2 construct: As F1; by count CD38 residues 238-250

[3] = biological target: T3, F12 (peptide-Fc fusion derived from the extracellular domain of human CD38) (human, UniProt P0DOX5 223-449 = IgG part); test: as above
T3 construct: As F1; by count CD38 residues 186-198

[4] = biological target: T4, F15 (peptide-Fc fusion derived from the extracellular domain of human CD38) (human, UniProt P0DOX5 223-449 = IgG part); test: as above
T4 construct: As F1; by count CD38 residues 225-237

[5] = biological target: T5, F10 (peptide-Fc fusion derived from the extracellular domain of human CD38) (human, UniProt P0DOX5 223-449 = IgG part); test: as above
T5 construct: As F1; by count CD38 residues 160-172

[6] = biological target: T6, F18 (peptide-Fc fusion derived from the extracellular domain of human CD38) (human, UniProt P0DOX5 223-449 = IgG part); test: as above
T6 construct: As F1; by count CD38 residues 264-276

[7] = biological target: T7, F11 (peptide-Fc fusion derived from the extracellular domain of human CD38) (human, UniProt P0DOX5 223-449 = IgG part); test: as above
T7 construct: As F1; by count CD38 residues 173-185

[8] = biological target: T8, F14 (peptide-Fc fusion derived from the extracellular domain of human CD38) (human, UniProt P0DOX5 223-449 = IgG part); test: as above
T8 construct: As F1; by count CD38 residues 212-224

[9] = biological target: T9, F7 (peptide-Fc fusion derived from the extracellular domain of human CD38) (human, UniProt P0DOX5 223-449 = IgG part); test: SPR, antibody immobilized, peptide-Fc fusion injected
T9 construct: As F1; by count CD38 residues 121-133

[10] = biological target: T10, F20 (peptide-Fc fusion derived from the extracellular domain of human CD38) (human, UniProt P0DOX5 223-449 = IgG part); test: as above
T10 construct: Final peptide of 11 amino acids, else as F1; by count CD38 residues 290-300

[11] = biological target: T11, F4 (peptide-Fc fusion derived from the extracellular domain of human CD38) (human, UniProt P0DOX5 223-449 = IgG part); test: as above
T11 construct: As F1; by count CD38 residues 82-94

[12] = biological target: T12, F13 (peptide-Fc fusion derived from the extracellular domain of human CD38) (human, UniProt P0DOX5 223-449 = IgG part); test: as above
T12 construct: As F1; by count CD38 residues 199-211

[13] = biological target: T13, F3 (peptide-Fc fusion derived from the extracellular domain of human CD38) (human, UniProt P0DOX5 223-449 = IgG part); test: as above
T13 construct: As F1; by count CD38 residues 69-81; also called F3 construct

[14] = biological target: T14, F17 (peptide-Fc fusion derived from the extracellular domain of human CD38) (human, UniProt P0DOX5 223-449 = IgG part); test: as above
T14 construct: As F1; by count CD38 residues 251-263

[15] = biological target: T15, F8 (peptide-Fc fusion derived from the extracellular domain of human CD38) (human, UniProt P0DOX5 223-449 = IgG part); test: as above
T15 construct: As F1; by count CD38 residues 134-146

[16] = biological target: T16, F2 (peptide-Fc fusion derived from the extracellular domain of human CD38) (human, UniProt P0DOX5 223-449 = IgG part); test: as above
T16 construct: As F1; by count CD38 residues 56-68

[17] = biological target: T17, F1 (peptide-Fc fusion derived from the extracellular domain of human CD38) (human, UniProt P0DOX5 223-449 = IgG part); test: as above
T17 construct: 13-residue peptide fused to human IgG1 Fc (CH2-CH3) with an Ala-Ser linker; by count CD38 residues 43-55

[18] = biological target: T18, F5 (peptide-Fc fusion derived from the extracellular domain of human CD38) (human, UniProt P0DOX5 223-449 = IgG part); test: as above
T18 construct: As F1; by count CD38 residues 95-107

[19] = biological target: T19, F9 (peptide-Fc fusion derived from the extracellular domain of human CD38) (human, UniProt P0DOX5 223-449 = IgG part); test: as above
T19 construct: As F1; by count CD38 residues 147-159

[20] = biological target: T20, F6 (peptide-Fc fusion derived from the extracellular domain of human CD38) (human, UniProt P0DOX5 195-449 = IgG part); test: SPR
T20 construct: As F1; by count CD38 residues 108-120 (holds M110)

[21] = biological target: T13, F3 (peptide-Fc fusion derived from the …); test: SPR, SAR650984 on the chip, peptide-Fc fusion injected
[22] = biological target: T21, human CD3 epsilon 1-26_Fc fusion protein (human); test: SPR, CD3 epsilon 1-26 Fc coupled to the chip, antibody injected
T21 construct: also called human CD3 1-26_Fc fusion protein

B1: humanized 9G7 antibody (best-fit version) as used in Example 10 (antibody, human IgG1, kappa, V domains shown)
VH: QVTLKESGPTLVKPTQTLTLTCTFSGLSLSTSGKGVGWIRQPPGKALEWLAHIWWDDDKRYNPALKSRLTITKDTSKNQVVLTMTNMDPVDTATYYCARIELGRSYVMDYWGQGTLVTVSS
VL: DIQMTQSPSSLSASVGDRVTITCQASQDVITSVAWFQQKPGKAPKLLIYSASYRYTGVPSRFSGSGSGTDFTFTISSLQPEDIATYYCQQHYTIPLTFGQGTKLEIKR
notes: also called h9G7
**Q.** Does B1 bind [1]?
**A.** no binding (tested: 15 nM)

**Q.** Does B1 bind [2]?
**A.** no binding (tested: 15 nM)

**Q.** Does B1 bind [3]?
**A.** no binding (tested: 15 nM)

**Q.** Does B1 bind [4]?
**A.** no binding (tested: 15 nM)

**Q.** Does B1 bind [5]?
**A.** no binding (tested: 15 nM)

**Q.** Does B1 bind [6]?
**A.** no binding (tested: 15 nM)

**Q.** Does B1 bind [7]?
**A.** no binding (tested: 15 nM)

**Q.** Does B1 bind [8]?
**A.** no binding (tested: 15 nM)

**Q.** Does B1 bind [9]?
**A.** no binding (tested: 15 nM; 200 nM)

**Q.** Does B1 bind [10]?
**A.** no binding (tested: 15 nM; 200 nM)

**Q.** Does B1 bind [11]?
**A.** no binding (tested: 15 nM; 200 nM)

**Q.** Does B1 bind [12]?
**A.** no binding (tested: 15 nM; 200 nM)

**Q.** Does B1 bind [13]?
**A.** no binding (tested: 15 nM; 200 nM)

**Q.** Does B1 bind [14]?
**A.** no binding (tested: 15 nM; 200 nM)

**Q.** Does B1 bind [15]?
**A.** no binding (tested: 15 nM; 200 nM)

**Q.** Does B1 bind [16]?
**A.** no binding (tested: 15 nM; 200 nM)

**Q.** Does B1 bind [17]?
**A.** no binding (tested: 15 nM; 200 nM)

**Q.** Does B1 bind [18]?
**A.** no binding (tested: 15 nM; 200 nM)

**Q.** Does B1 bind [19]?
**A.** no binding (tested: 15 nM; 200 nM)

B2: SAR650984 antibody (antibody, human IgG1, kappa, V domains shown)
VH: QVQLVQSGAEVAKPGTSVKLSCKASGYTFTDYWMQWVKQRPGQGLEWIGTIYPGDGDTGYAQKFQGKATLTADKSSKTVYMHLSSLASEDSAVYYCARGDYYGSNSLDYWGQGTSVTVSS
VL: DIVMTQSHLSMSTSLGDPVSITCKASQDVSTVVAWYQQKPGQSPRRLIYSASYRYIGVPDRFTGSGAGTDFTFTISSVQAEDLAVYYCQQHYSPPYTFGGGTKLEIKR
notes: also called humanized SAR650984 antibody
**Q.** Does B2 bind [20]?
**A.** binds

**Q.** Does B2 bind [21]?
**A.** no binding (tested: not printed)

B3: BEAT CD38-9G7best-fit/CD3(SP34-Kappa2) antibody (bispecific antibody)
heavy: QVTLKESGPTLVKPTQTLTLTCTFSGLSLSTSGKGVGWIRQPPGKALEWLAHIWWDDDKRYNPALKSRLTITKDTSKNQVVLTMTNMDPVDTATYYCARIELGRSYVMDYWGQGTLVTVSSASTKGPSVFPLAPSSKSTSGGTAALGCLVKDYFPEPVTVSWNSGALTSGVHTFPAVLQSSGLYSLSSVVTVPSSSLGTQTYICNVNHKPSNTKVDKKVEPKSCDKTHTCPPCPAPEAAGGPSVFLFPPKPKDTLMISRTPEVTCVVVDVSHEDPEVQFKWYVDGVEVHNAKTKPREEQYNSTFRVVSVLTVLHQDWLNGKEYKCKVSNKALPAPIEKTISKTKGQPREPAVYTLPPSREEMTKNQVKLVCLVTGFYPSDIAVEWESSGQPENNYYTTPPMLDSDGSFSLVSWLNVDKSRWQQGNIFSCSVMHEALHNRFTQKSLSLSPGK
light: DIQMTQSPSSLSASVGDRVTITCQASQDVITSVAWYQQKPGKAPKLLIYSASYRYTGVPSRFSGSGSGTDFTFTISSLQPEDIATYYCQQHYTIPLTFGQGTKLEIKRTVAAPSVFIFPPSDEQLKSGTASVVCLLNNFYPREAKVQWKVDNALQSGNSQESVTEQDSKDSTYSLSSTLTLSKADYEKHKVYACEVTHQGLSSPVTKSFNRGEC
chain: EVQLVESGGGLVQPGGSLRLSCAASGFTFNTYAMNWVRQAPGKGLEWVARIRSKYNNYATYYADSVKGRFTISRDDSKNTLYLQMNSLRAEDTAVYYCVRHGNFGNSYVSYFAYWGQGTTVTVSSGGGGSGGGGSGGGGSEIVVTQSPATLSVSPGERATLSCRSSTGAVTAANYANWVQEKPGQAFRGLIGGANKRAPGVPARFSGSLSGDEATLTISSLQSEDFAVYYCALFYSNLWVFGQGTKLEIKGGGGTDKTHTCPPCPAPEAAGGPSVFLFPPKPKDTLMISRTPEVTCVVVDVSHEDPEVKFNWYVDGVEVHNAKTKPREEQYNSTYRVVSVLTVLHQDWLNGKEYKCKVSNKALPAPIEKTISKAKGQPREPEVATFPPSRDELTKNQVTLVCLVTGFYPSDIAVEWESNGQPENNYKTDPPLLESQGSFALSSRLRVDKSRWQQGNVFSCSVMHEALHNHYTQKSLSLSPG
notes: Third chain is the anti-CD3 epsilon scFv BEAT heavy chain with humanized SP34 VH5/VL32; also called 9G7xSP34(GV2)
**Q.** B3 was tested. Which Kd [22] did it give?
**A.** 18 nM
